Test results reported in article PMC10093686, “Structural insights into acetylated histone ligand recognition by the BDP1 bromodomain of Plasmodium falciparum” (International journal of biological macromolecules, 2022).
No end group written: not given here.

Target: PfBDP1-BRD (residues 303–488 or 333–456), bromodomain of P. falciparum Bromodomain Protein 1, as used in ITC (P. falciparum) (UniProt Q8IJ72)
Experiment: ITC; histone peptide (2.5–5.0 mM) in the syringe, PfBDP1-BRD (303–488 or 333–456; 100–200 μM) in the sample cell; 5°C; 20 mM sodium phosphate pH 7.5, 150 mM NaCl, 1 mM TCEP; 1:1 binding model, single set of identical sites

SGK(Ac)GPAQK(Ac)SQAAK(Ac)K(Ac)TAGK(Ac)TLGPR [H2B.ZK3acK8acK13acK14acK18ac histone peptide, penta-acetylated histone H2B.Z]
Kd: 1300 µM | stoichiometry N: 1
